This passage reports Relative cAMP EC50 and cAMP Rel EC50, nM (1% HSA) results from patent US20240270821A1, “GIP/GLP1/GCG TRI-RECEPTOR AGONISTS AND USES THEREOF” (priority 2023, published 2024).

To fix the notation:
T1: human GIP receptor (human) (UniProt P48546)
T1 sequence (looked up): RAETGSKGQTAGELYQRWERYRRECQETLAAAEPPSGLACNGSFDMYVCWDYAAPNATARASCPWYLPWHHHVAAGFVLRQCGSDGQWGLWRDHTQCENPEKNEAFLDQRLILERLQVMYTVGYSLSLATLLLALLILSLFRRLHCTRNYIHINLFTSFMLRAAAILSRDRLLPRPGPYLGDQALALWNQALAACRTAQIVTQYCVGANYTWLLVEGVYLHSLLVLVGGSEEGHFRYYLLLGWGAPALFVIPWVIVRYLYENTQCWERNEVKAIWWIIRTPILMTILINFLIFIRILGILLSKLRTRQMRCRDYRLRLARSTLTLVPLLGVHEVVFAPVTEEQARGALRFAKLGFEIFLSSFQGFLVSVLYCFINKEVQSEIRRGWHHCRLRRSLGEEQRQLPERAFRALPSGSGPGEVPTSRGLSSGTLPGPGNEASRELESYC

B1: Example 962 (peptide)
chain: YXQGTFTSDXSRXLDKKAQXAFIEYLIAGGPSSGAPPPSGSEE
modifications: synthetic construct; SITE 2: note = 2-Aminoisobutyric Acid; SITE 10: note = 3-(4-Pyridyl)-L-alanine; SITE 13: note = alpha-methyl-leucine; SITE 17: note = Lysine is chemically modified through conjugation of the epsilon-amino group of the Lysine side chain with (gamma-Glu)2-CO-(CH2)16-CO2H; SITE 20:
B2: Example 963 (peptide)
chain: B1 chain with R12Q, P31E
modifications: synthetic construct; SITE 2: note = 2-Aminoisobutyric Acid; SITE 10: note = 3-(4-Pyridyl)-L-alanine; SITE 13: note = alpha-methyl-leucine; SITE 17: note = Lysine is chemically modified through conjugation of the epsilon-amino group of the Lysine side chain with (gamma-Glu)2-CO-(CH2)16-CO2H; SITE 20:
B3: Example 975 (peptide)
chain: YXQGTFTSDXSXXLDXKAQXQFIEXLLEGGPSSGAPPPSGSEE
modifications: non-natural residues; acylated Lys; C-terminal amide; synthetic construct; SITE 2: note = 2-Aminoisobutyric Acid; SITE 10: note = 3-(4-Pyridyl)-L-alanine; SITE 12: note = L-ornithine; SITE 13: note = alpha-methyl-leucine; SITE 16: note = L-ornithine; SITE 17: note = Lysine is chemically modified through conjugation of the epsilon-amino group of the Lys
B4: Example 971 (peptide)
chain: B1 chain with R12Q, A35E, E42G
modifications: synthetic construct; SITE 2: note = 2-Aminoisobutyric Acid; SITE 10: note = 3-(4-Pyridyl)-L-alanine; SITE 13: note = alpha-methyl-leucine; SITE 17: note = Lysine is chemically modified through conjugation of the epsilon-amino group of the Lysine side chain with (gamma-Glu)2-CO-(CH2)16-CO2H; SITE 20:
B5: Example 959 (peptide)
chain: B1 chain with Y25X, A28E
modifications: Aib, 4Pal, αMeL, Me4Pal; acylated Lys; C-terminal amide; synthetic construct; SITE 2: note = 2-Aminoisobutyric Acid; SITE 10: note = 3-(4-Pyridyl)-L-alanine; SITE 13: note = alpha-methyl-leucine; SITE 17: note = Lysine is chemically modified through conjugation of the epsilon-amino group of the Lysine side chain with (gamma-Glu)2-CO-(CH2)16-CO2H; SITE 20:
B6: Example 972 (peptide)
chain: B3 chain with L27I
modifications: non-natural residues; (γGlu)2-C18 diacid on Lys; C-terminal amide; synthetic construct; SITE 2: note = 2-Aminoisobutyric Acid; SITE 10: note = 3-(4-Pyridyl)-L-alanine; SITE 12: note = L-ornithine; SITE 13: note = alpha-methyl-leucine; SITE 16: note = L-ornithine; SITE 17: note = Lysine is chemically modified through conjugation of the epsilon-amino group of the Lys
B7: Example 961 (peptide)
chain: B1 chain with R12X
modifications: synthetic construct; SITE 2: note = 2-Aminoisobutyric Acid; SITE 10: note = 3-(4-Pyridyl)-L-alanine; SITE 12: note = L-ornithine; SITE 13: note = alpha-methyl-leucine; SITE 17: note = Lysine is chemically modified through conjugation of the epsilon-amino group of the Lysine side chain with (gamma-Gl)
B8: Example 960 (peptide)
chain: B1 chain with R12Q
modifications: synthetic construct; SITE 2: note = 2-Aminoisobutyric Acid; SITE 10: note = 3-(4-Pyridyl)-L-alanine; SITE 13: note = alpha-methyl-leucine; SITE 17: note = Lysine is chemically modified through conjugation of the epsilon-amino group of the Lysine side chain with (gamma-Glu)2-CO-(CH2)16-CO2H; SITE 20:
B9: Example 974 (peptide)
chain: B3 chain with Q21X, L27I
modifications: Aib, 4Pal, Orn, Me4Pal, alpha-methyl-Tyr, lipidated Lys, amide; synthetic construct; SITE 2: note = 2-Aminoisobutyric Acid; SITE 10: note = 3-(4-Pyridyl)-L-alanine; SITE 12: note = L-ornithine; SITE 13: note = alpha-methyl-leucine; SITE 16: note = L-ornithine; SITE 17: note = Lysine is chemically modified through conjugation of the epsilon-amino group of the Lys
B10: Example 976 (peptide)
chain: B3 chain with Q21E
modifications: non-natural residues; lipidated Lys; C-terminal amide; synthetic construct; SITE 2: note = 2-Aminoisobutyric Acid; SITE 10: note = 3-(4-Pyridyl)-L-alanine; SITE 12: note = L-ornithine; SITE 13: note = alpha-methyl-leucine; SITE 16: note = L-ornithine; SITE 17: note = Lysine is chemically modified through conjugation of the epsilon-amino group of the Lys
B11: Example 981 (peptide)
chain: B1 chain with R12X, A35E, S41T
modifications: synthetic construct; SITE 2: note = 2-Aminoisobutyric Acid; SITE 10: note = 3-(4-Pyridyl)-L-alanine; SITE 12: note = L-ornithine; SITE 13: note = alpha-methyl-leucine; SITE 17: note = Lysine is chemically modified through conjugation of the epsilon-amino group of the Lysine side chain with (gamma-Gl)
B12: Example 978 (peptide)
chain: B1 chain with R12Q, K16X, A35E, E42G
modifications: synthetic construct; SITE 2: note = 2-Aminoisobutyric Acid; SITE 10: note = 3-(4-Pyridyl)-L-alanine; SITE 13: note = alpha-methyl-leucine; SITE 16: note = L-ornithine; SITE 17: note = Lysine is chemically modified through conjugation of the epsilon-amino group of the Lysine side chain with (gamma-Gl)
B13: Example 982 (peptide)
chain: YXQGTFTSDXSXXLDKKAQXAFIEYLIAGGPSSGEPPPSGTEEE
modifications: synthetic construct; SITE 2: note = 2-Aminoisobutyric Acid; SITE 10: note = 3-(4-Pyridyl)-L-alanine; SITE 12: note = L-ornithine; SITE 13: note = alpha-methyl-leucine; SITE 17: note = Lysine is chemically modified through conjugation of the epsilon-amino group of the Lysine side chain with (gamma-Gl)

Changes are numbered by the printed parent chain.

Sequence of human glucagon receptor (human) (P47871 26-477): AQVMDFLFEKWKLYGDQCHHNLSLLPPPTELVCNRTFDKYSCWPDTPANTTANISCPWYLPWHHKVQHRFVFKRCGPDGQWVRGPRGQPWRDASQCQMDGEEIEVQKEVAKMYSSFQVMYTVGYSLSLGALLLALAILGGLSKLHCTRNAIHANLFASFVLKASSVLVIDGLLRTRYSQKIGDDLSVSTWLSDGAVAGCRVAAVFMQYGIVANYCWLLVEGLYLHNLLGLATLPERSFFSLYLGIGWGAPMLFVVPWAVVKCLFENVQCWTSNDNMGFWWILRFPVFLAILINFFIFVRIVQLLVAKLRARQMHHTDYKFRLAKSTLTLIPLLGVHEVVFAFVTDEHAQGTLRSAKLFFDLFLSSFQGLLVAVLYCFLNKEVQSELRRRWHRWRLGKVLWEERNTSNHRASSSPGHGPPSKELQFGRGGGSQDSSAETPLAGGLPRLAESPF

The target of the first test is hGLP-1R (Homo sapiens, UniProt P43220). Description: cell-based or functional assay.
Sequence of hGLP-1R (P43220 24-463): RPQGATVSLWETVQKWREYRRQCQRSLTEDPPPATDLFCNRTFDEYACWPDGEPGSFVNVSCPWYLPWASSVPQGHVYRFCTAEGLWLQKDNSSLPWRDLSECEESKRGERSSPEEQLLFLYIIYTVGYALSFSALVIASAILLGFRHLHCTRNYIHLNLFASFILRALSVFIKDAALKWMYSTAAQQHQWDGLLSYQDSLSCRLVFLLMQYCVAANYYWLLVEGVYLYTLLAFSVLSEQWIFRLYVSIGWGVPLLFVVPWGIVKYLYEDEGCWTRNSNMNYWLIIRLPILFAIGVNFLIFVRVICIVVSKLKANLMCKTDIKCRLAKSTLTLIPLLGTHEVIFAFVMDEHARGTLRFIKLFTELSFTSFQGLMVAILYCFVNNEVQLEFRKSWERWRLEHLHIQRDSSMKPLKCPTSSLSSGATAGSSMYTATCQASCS
B1 yielded a Relative cAMP EC50 of 1.36 nM and a cAMP Rel EC50, nM (1% HSA) of 132 nM.

Take B2: the Relative cAMP EC50 came out at 1.77 nM and the cAMP Rel EC50, nM (1% HSA) was 215 nM.

With B3, the cAMP Rel EC50, nM (1% HSA) is 1810 nM.

As for B4, the Relative cAMP EC50 was 3.46 nM and the cAMP Rel EC50, nM (1% HSA) is 294 nM.

The molecule B5 had a cAMP Rel EC50, nM (1% HSA) of 503 nM.

B6 returned a cAMP Rel EC50, nM (1% HSA) of 327 nM.

With B7, the Relative cAMP EC50 came out at 2.52 nM and the cAMP Rel EC50, nM (1% HSA) came to 216 nM.

Take B8: the Relative cAMP EC50 is 1.51 nM and the cAMP Rel EC50, nM (1% HSA) amounted to 161 nM.

The molecule B9 gave a cAMP Rel EC50, nM (1% HSA) of 283 nM.

Consider B10, for which the cAMP Rel EC50, nM (1% HSA) turned out to be 2860 nM.

With B11, the Relative cAMP EC50 is 4.45 nM and the cAMP Rel EC50, nM (1% HSA) was 330 nM.

Regarding B12, the Relative cAMP EC50 turned out to be 1.6 nM and the cAMP Rel EC50, nM (1% HSA) was 174 nM.

B13 yielded a Relative cAMP EC50 of 4.94 nM and a cAMP Rel EC50, nM (1% HSA) of 310 nM.

The next test addresses human glucagon receptor (human) (UniProt P47871). Description: cell-based or functional assay.
B1: the Relative cAMP EC50 was found to be 3.13 nM and the cAMP Rel EC50, nM (1% HSA) stood at 485 nM.

The molecule B2 displayed a Relative cAMP EC50 of 5.81 nM and a cAMP Rel EC50, nM (1% HSA) of 900 nM.

Take B3: the cAMP Rel EC50, nM (1% HSA) came out at 374 nM.

The molecule B4 gave a Relative cAMP EC50 of 8.26 nM and a cAMP Rel EC50, nM (1% HSA) of 1340 nM.

As for B5, the cAMP Rel EC50, nM (1% HSA) came to 316 nM.

Turning to B6, the cAMP Rel EC50, nM (1% HSA) was 660 nM.

With B7, the Relative cAMP EC50 amounted to 2.96 nM and the cAMP Rel EC50, nM (1% HSA) came to 342 nM.

Turning to B8, the Relative cAMP EC50 amounted to 5.5 nM and the cAMP Rel EC50, nM (1% HSA) turned out to be 813 nM.

Turning to B9, the cAMP Rel EC50, nM (1% HSA) is 870 nM.

B10: the cAMP Rel EC50, nM (1% HSA) stood at 848 nM.

B11 came in with a Relative cAMP EC50 of 3.7 nM and a cAMP Rel EC50, nM (1% HSA) of 477 nM.

For the molecule B12, the Relative cAMP EC50 is 8.91 nM and the cAMP Rel EC50, nM (1% HSA) was 824 nM.

As for B13, the Relative cAMP EC50 stood at 3.91 nM and the cAMP Rel EC50, nM (1% HSA) is 307 nM.

A further test has as its target T1, human GIP receptor (human). Description: cell-based or functional assay.
In turn, B1 came in with a Relative cAMP EC50 of 0.0972 nM and a cAMP Rel EC50, nM (1% HSA) of 9.71 nM.

For B2, the Relative cAMP EC50 is 0.244 nM and the cAMP Rel EC50, nM (1% HSA) was 25.1 nM.

Regarding B3, the cAMP Rel EC50, nM (1% HSA) came to 30.1 nM.

In turn, B4 registered a Relative cAMP EC50 of 0.298 nM and a cAMP Rel EC50, nM (1% HSA) of 30.2 nM.

In turn, B5 registered a cAMP Rel EC50, nM (1% HSA) of 24.5 nM.

Take B6: the cAMP Rel EC50, nM (1% HSA) came to 30.4 nM.

Regarding B7, the Relative cAMP EC50 stood at 0.167 nM and the cAMP Rel EC50, nM (1% HSA) stood at 13.6 nM.

With B8, the Relative cAMP EC50 came out at 0.124 nM and the cAMP Rel EC50, nM (1% HSA) is 14.1 nM.

Regarding B9, the cAMP Rel EC50, nM (1% HSA) came out at 80.9 nM.

On to B10, for which the cAMP Rel EC50, nM (1% HSA) stood at 82.7 nM.

Regarding B11, the Relative cAMP EC50 worked out at 0.243 nM and the cAMP Rel EC50, nM (1% HSA) was 21.1 nM.

B12 registered a Relative cAMP EC50 of 0.284 nM and a cAMP Rel EC50, nM (1% HSA) of 33.9 nM.

The molecule B13 had a Relative cAMP EC50 of 0.328 nM and a cAMP Rel EC50, nM (1% HSA) of 19.4 nM.
